Data taken from PMC11721587, “Morphogen-induced kinase condensates transduce Hh signal by allosterically activating Gli” (Science Advances, 2025).

B1: Ulk3-HA^WT (in HEK293T) (enzyme, mouse, UniProt Q3U3Q1 1-472, looked up)
chain: MAGPSWGLPRLDGFILTERLGSGTYATVYKAYAKKDTREVVAIKCVAKKSLNKASVENLLTEIEILKGIRHPHIVQLKDFQWDNDNIYLIMEFCAGGDLSRFIHTRRILPEKVARVFMQQLASALQFLHERNISHLDLKPQNILLSSLEKPHLKLADFGFAQHMSPWDEKHVLRGSPLYMAPEMVCRRQYDARVDLWSVGVILYEALFGQPPFASRSFSELEEKIRSNRVIELPLRPQLSLDCRDLLQRLLERDPARRISFKDFFAHPWVDLEHMPSGESLAQARALVVEAVKKDQEGDAAAALSLYCKALDFFVPALHYEVDAQRKEAIKAKVGQYVSRAEELKAIVSSSNQALLRQGTTVQELLREMARDKPRLLAALEVASAALAKEEEAGKEQDALDLYQHSLGELLVLLAAEAPGRRRELLHTEVQNLMARAEYLKEQIKIRESHWEAESLDKEGLSESVRSSCTLQ
modifications: SUMO-conjugated form enriched in the condensates (P100)
notes: source: HEK293T, transfected, overexpressed; in lysate fractions (S100, P100); purified from HEK293T for in vitro maturation; not shown: 3x HA, C-terminal, kept
B2: Flag-Fu^EE (enzyme)
chain: MNRYAVSSLVGQGSFGCVYKATRKDDSKVVAIKVISKRGRATKELKNLRRECDIQARLKHPHVIEMIESFESKTDLFVVTEFALMDLHRYLSYNGAMGEEPARRVTGHLVSALYYLHSNRILHRDLKPQNVLLDKNMHAKLCDFGLARNMELGEHVLTSIKGTPLYMAPELLAEQPYDHHADMWSLGCIAYESMAGQPPFCASSILHLVKMIKHEDVKWPSTLTSECRSFLQGLLEKDPGLRISWTQLLCHPFVEGRIFIAETQAEAAKESPFTNPEAKVKSSKQSDPEVGDLDEALAALDFGESRQENLTTSRDSINAIAPSDVEHLETDVEDNMQRVVVPFADLSYRDLSGVRAMPMVHQPVINSHTCFVSGNSNMILNHMNDNFDFQASLRGGGVAAKPIVAPTVRQSRSKDLEKRKLSQNLDNFSVRLGHSVDHEAQRKATEIATQEKHNQENKPPAEAISYANSQPPQQQPQQLKHSMHSTNEEKLSSDNTPPCLLPGWDSCDESQSPPIENDEWLAFLNRSVQELLDGELDSLKQHNLVSIIVAPLRNSKAIPRVLKSVAQLLSLPFVLVDPVLIVDLELIRNVYVDVKLVPNLMYACKLLLSHKQLSDSAASAPLTTGSLSRTLRSIPELTVEELETACSLYELVCHLVHLQQQFLTQFCDAVAILAASDLFLNFLTHDFRQSDSDAASVRLAGCMLALMGCVLRELPENAELVERIVFNPRLNFVSLLQSRHHLLRQRSCQLLRLLARFSLRGVQRIWNGELRFALQQLSEHHSYPALRGEAAQTLDEISHFTFFVT
modifications: SUMOylated in Sf9 cells (condensate fraction)
B3: fused (Fu) (enzyme, Drosophila (endogenous in Cl8), UniProt P23647 1-805, looked up)
chain: MNRYAVSSLVGQGSFGCVYKATRKDDSKVVAIKVISKRGRATKELKNLRRECDIQARLKHPHVIEMIESFESKTDLFVVTEFALMDLHRYLSYNGAMGEEPARRVTGHLVSALYYLHSNRILHRDLKPQNVLLDKNMHAKLCDFGLARNMTLGTHVLTSIKGTPLYMAPELLAEQPYDHHADMWSLGCIAYESMAGQPPFCASSILHLVKMIKHEDVKWPSTLTSECRSFLQGLLEKDPGLRISWTQLLCHPFVEGRIFIAETQAEAAKESPFTNPEAKVKSSKQSDPEVGDLDEALAALDFGESRQENLTTSRDSINAIAPSDVEHLETDVEDNMQRVVVPFADLSYRDLSGVRAMPMVHQPVINSHTCFVSGNSNMILNHMNDNFDFQASLRGGGVAAKPIVAPTVRQSRSKDLEKRKLSQNLDNFSVRLGHSVDHEAQRKATEIATQEKHNQENKPPAEAISYANSQPPQQQPQQLKHSMHSTNEEKLSSDNTPPCLLPGWDSCDESQSPPIENDEWLAFLNRSVQELLDGELDSLKQHNLVSIIVAPLRNSKAIPRVLKSVAQLLSLPFVLVDPVLIVDLELIRNVYVDVKLVPNLMYACKLLLSHKQLSDSAASAPLTTGSLSRTLRSIPELTVEELETACSLYELVCHLVHLQQQFLTQFCDAVAILAASDLFLNFLTHDFRQSDSDAASVRLAGCMLALMGCVLRELPENAELVERIVFNPRLNFVSLLQSRHHLLRQRSCQLLRLLARFSLRGVQRIWNGELRFALQQLSEHHSYPALRGEAAQTLDEISHFTFFVT
notes: Fu Ser/Thr kinase, Drosophila, endogenous in Cl8 cells; After Hh it is phosphorylated (T158/S159, S482) and SUMO-conjugated; the SDS-resistant dimer is called mature Fu; also called endogenous Fu; mature Fu; source: endogenous, Cl8 cells (fractions, lysates)

Key:
[1] = molecular target: the molecule itself; assay: co-sedimentation; sedimentation assay of HEK293T cells overexpressing Ulk3-HA constructs; S100 soluble, P100 condensates
[2] = molecular target: the molecule itself; assay: SDS-PAGE and immunoblot (SDS-resistant dimer); SDS-resistant ~250 Kd Fu dimer ('mature Fu') in extracts of cells (Cl8 with Hh-conditioned medium, S2, Sf9, wing discs); tells nothing of SDS-labile association

Protein | binding result [1] | stoichiometry N [2]
B1 | binds | –
B2 | – | 2
B3 | – | 2
